assay: Covalent bilin (PCB) binding of recombinant apophytochrome polypeptides upon incubation with PCB (zinc blot); details: incubation with PCB
Text: This work thus confirms that the structural motif illustrated in FIG. 2 represents the bilin-binding domain of the ‘phytochrome superfamily’ from which new phytofluors of different colors can be devised.
Based on the multiple sequence alignment shown in FIG. 2, and using methods described in W098/04700, a bacterial expression vector express a Strep-Tagged version of N-terminal 197 amino acid region of Cph2 (Cph2-N197) that encompassed ‘module 1’ only was constructed (see, FIG. 3).
To address the importance of conserved residues in the bilin lyase domain of Cph1 to bilin attachment and spectral properties of its bilin adducts, site-directed mutagenesis of some of these residues were undertaken. Charged residues D171, R172, E189 and R222 of Cph1 (N514) were mutagenized in the initial studies.

| covalent binding of PCB | Molecule |
| --- | --- |
| covalently bind PCB | cph2a (N390): first 390 amino acid residues of Cph2 (SLL0821), N-terminal phytochrome-related domain (protein, UniProt Q55434 1-390, looked up, fragment) MNPNRSLEDFLRNVINKFHRALTLRETLQVIVEEARIFLGVDRVKIYKFASDGSGEVLAEAVNRAALPSLLGLHFPVEDIPPQAREELGNQRKMIAVDVAHRRKKSHELSGRISPTEHSNGHYTTVDSCHIQYLLAMGVLSSLTVPVMQDQQLWGIMAVHHSKPRRFTEQEWETMALLSKEVSLAITQSQLSRQVHQQQVQEALVQRLETTVAQYGDRPETWQYALETVGQAVEADGAVLYIAPDLTGSVAQHYQWNLRFDWGNWLETSLWQELMRGQPSAAMEPMAAVQSTWEKPRPFTSVAPLPPTNCVPHGYTLGELEQRSDWIAPPESLSAENFQSFLIVPLAADQQWVGSLILLRKEKSLVKHWAGKRGIDRRNILPRLSFEAWE |
| yielded a covalent biliprotein adduct | Cph2-N197: Strep-Tagged N-terminal 197 amino acid region of Cph2 (SEQ ID NO: 9), module 1 only (protein, Strep-Tag) KLAVRAISRLQSLPGGDIGALCDTVVEDVQRLTGYDRVMVYQFHEDDHGEVVSEIRRSDLEPYLGLHYPATDIPQAARFLFKQNRVRMICDCNATPVKVVQSEELKRPLCLVNSTLRAPHGCHTQYMANMGSVASLALAIVVKGKDSSKLWGLVVGHHCSPRYVPFPLRYACEFLMQAFGLQLQMELQLASQLAEK |

same assay, conditions: site-directed mutants of Cph1 (N514)

| PCB Binding | Molecule |
| --- | --- |
| yes | Cph1 (N514) R222G: site-directed single mutant R222G of Cph1 (N514) (protein, UniProt Q55168 1-514, looked up, variant R222G, N514 fragment) MATTVQLSDQSLRQLETLAIHTAHLIQPHGLVVVLQEPDLTISQISANCTGILGRSPEDLLGRTLGEVFDSFQIDPIQSRLTAGQISSLNPSKLWARVMGDDFVIFDGVFHRNSDGLLVCELEPAYTSDNLPFLGFYHMANAALNRLRQQANLRDFYDVIVEEVRRMTGFDRVMLYRFDENNHGDVIAEDKRDDMEPYLGLHYPESDIPQPARRLFIHNPIGVIPDVYGVAVPLTPAVNPSTNRAVDLTESILRSAYHCHLTYLKNMGVGASLTISLIKDGHLWGLIACHHQTPKVIPFELRKACEFFGRVVFSNISAQEDTETFDYRVQLAEHEAVLLDKMTTAADFVEGLTNHPDRLLGLTGSQGAAICFGEKLILVGETPDEKAVQYLLQWLENREVQDVFFTSSLSQIYPDAVNFKSVASGLLAIPIARHNFLLWFRPEVLQTVNWGGDPNHAYEATQEDGKIELHPRQSFDLWKEIVRLQSLPWQSVEIQSALALKKAIVNLILRQAEE |
| yes | Cph1 (N514) D171A: site-directed single mutant D171A of Cph1 (N514) (protein, UniProt Q55168 1-514, looked up, variant D171A, N514 fragment) MATTVQLSDQSLRQLETLAIHTAHLIQPHGLVVVLQEPDLTISQISANCTGILGRSPEDLLGRTLGEVFDSFQIDPIQSRLTAGQISSLNPSKLWARVMGDDFVIFDGVFHRNSDGLLVCELEPAYTSDNLPFLGFYHMANAALNRLRQQANLRDFYDVIVEEVRRMTGFARVMLYRFDENNHGDVIAEDKRDDMEPYLGLHYPESDIPQPARRLFIHNPIRVIPDVYGVAVPLTPAVNPSTNRAVDLTESILRSAYHCHLTYLKNMGVGASLTISLIKDGHLWGLIACHHQTPKVIPFELRKACEFFGRVVFSNISAQEDTETFDYRVQLAEHEAVLLDKMTTAADFVEGLTNHPDRLLGLTGSQGAAICFGEKLILVGETPDEKAVQYLLQWLENREVQDVFFTSSLSQIYPDAVNFKSVASGLLAIPIARHNFLLWFRPEVLQTVNWGGDPNHAYEATQEDGKIELHPRQSFDLWKEIVRLQSLPWQSVEIQSALALKKAIVNLILRQAEE |
| yes | Cph1 (N514) Wild Type: N514 deletion mutant of Synechocystis sp. PCC 6803 apophytochrome Cph1, wild-type sequence (protein, UniProt Q55168 1-514, looked up, fragment) MATTVQLSDQSLRQLETLAIHTAHLIQPHGLVVVLQEPDLTISQISANCTGILGRSPEDLLGRTLGEVFDSFQIDPIQSRLTAGQISSLNPSKLWARVMGDDFVIFDGVFHRNSDGLLVCELEPAYTSDNLPFLGFYHMANAALNRLRQQANLRDFYDVIVEEVRRMTGFDRVMLYRFDENNHGDVIAEDKRDDMEPYLGLHYPESDIPQPARRLFIHNPIRVIPDVYGVAVPLTPAVNPSTNRAVDLTESILRSAYHCHLTYLKNMGVGASLTISLIKDGHLWGLIACHHQTPKVIPFELRKACEFFGRVVFSNISAQEDTETFDYRVQLAEHEAVLLDKMTTAADFVEGLTNHPDRLLGLTGSQGAAICFGEKLILVGETPDEKAVQYLLQWLENREVQDVFFTSSLSQIYPDAVNFKSVASGLLAIPIARHNFLLWFRPEVLQTVNWGGDPNHAYEATQEDGKIELHPRQSFDLWKEIVRLQSLPWQSVEIQSALALKKAIVNLILRQAEE |
| no | Cph1 (N514) DR171/2AG: double mutant D171A/R172G of Cph1 (N514) (protein, UniProt Q55168 1-514, looked up, variant D171A R172G, N514 fragment) MATTVQLSDQSLRQLETLAIHTAHLIQPHGLVVVLQEPDLTISQISANCTGILGRSPEDLLGRTLGEVFDSFQIDPIQSRLTAGQISSLNPSKLWARVMGDDFVIFDGVFHRNSDGLLVCELEPAYTSDNLPFLGFYHMANAALNRLRQQANLRDFYDVIVEEVRRMTGFAGVMLYRFDENNHGDVIAEDKRDDMEPYLGLHYPESDIPQPARRLFIHNPIRVIPDVYGVAVPLTPAVNPSTNRAVDLTESILRSAYHCHLTYLKNMGVGASLTISLIKDGHLWGLIACHHQTPKVIPFELRKACEFFGRVVFSNISAQEDTETFDYRVQLAEHEAVLLDKMTTAADFVEGLTNHPDRLLGLTGSQGAAICFGEKLILVGETPDEKAVQYLLQWLENREVQDVFFTSSLSQIYPDAVNFKSVASGLLAIPIARHNFLLWFRPEVLQTVNWGGDPNHAYEATQEDGKIELHPRQSFDLWKEIVRLQSLPWQSVEIQSALALKKAIVNLILRQAEE |
| no | Cph1 (N514) DR171/2AA: double mutant D171A/R172A of Cph1 (N514) (protein, UniProt Q55168 1-514, looked up, variant D171A R172A, N514 fragment) MATTVQLSDQSLRQLETLAIHTAHLIQPHGLVVVLQEPDLTISQISANCTGILGRSPEDLLGRTLGEVFDSFQIDPIQSRLTAGQISSLNPSKLWARVMGDDFVIFDGVFHRNSDGLLVCELEPAYTSDNLPFLGFYHMANAALNRLRQQANLRDFYDVIVEEVRRMTGFAAVMLYRFDENNHGDVIAEDKRDDMEPYLGLHYPESDIPQPARRLFIHNPIRVIPDVYGVAVPLTPAVNPSTNRAVDLTESILRSAYHCHLTYLKNMGVGASLTISLIKDGHLWGLIACHHQTPKVIPFELRKACEFFGRVVFSNISAQEDTETFDYRVQLAEHEAVLLDKMTTAADFVEGLTNHPDRLLGLTGSQGAAICFGEKLILVGETPDEKAVQYLLQWLENREVQDVFFTSSLSQIYPDAVNFKSVASGLLAIPIARHNFLLWFRPEVLQTVNWGGDPNHAYEATQEDGKIELHPRQSFDLWKEIVRLQSLPWQSVEIQSALALKKAIVNLILRQAEE |
